Source: patent publication US20210292392A1

Tests used:
Assay in all cases: cell-based or functional assay
[1] = target: spike protein on live SARS-CoV-2 (SARS-CoV-2) (UniProt P0DTC2)
[2] = target: spike (S) protein of live SARS-CoV-2 (SARS-CoV-2) (UniProt P0DTC2)
[3] = target: full length S protein of SARS-CoV-2 (on pseudovirus) (SARS-CoV-2) (UniProt P0DTC2)
[4] = target: spike protein of live SARS-CoV-2 (SARS-CoV-2) (UniProt P0DTC2)

## P2C-1F11 (antibody)
[1]
  IC50, live SARS-CoV-2 focus reduction neutralization test (FRNT): 0.03 mg/L
[2]
  Live virus IC50: 0.0323 mg/L
  Live virus IC80: 0.178 mg/L
[3]
  Pseudovirus IC50: 0.0286 mg/L
  Pseudovirus IC80: 0.119 mg/L
[4]
  Live virus IC50: 0.0323 mg/L
  Live virus IC80: 0.178 mg/L
